Measured values from CN116262788A (TAIZE HUIKANG BIOMEDICAL CO LTD; BEIJING MIANYI FANGZHOU …, dated 2023).

Tests used:
[1] = biological target: T1, 人CD27 (稳定表达人CD27的细胞系 HEK::CD27 细胞) (human, UniProt P26842 20-260); test: flow cytometry on HEK::CD27 cells, 10 ng and 100 ng antibody
T1 construct: whole, on cells; also called hCD27; 表达hCD27的细胞
T1 sequence (looked up): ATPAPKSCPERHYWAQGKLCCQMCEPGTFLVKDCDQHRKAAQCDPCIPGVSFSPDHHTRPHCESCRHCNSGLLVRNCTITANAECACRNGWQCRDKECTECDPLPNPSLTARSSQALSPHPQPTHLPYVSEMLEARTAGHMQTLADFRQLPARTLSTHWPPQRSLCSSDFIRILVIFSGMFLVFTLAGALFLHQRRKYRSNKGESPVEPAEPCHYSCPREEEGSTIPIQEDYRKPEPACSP

[2] = biological target: T2, 人CD27蛋白 (Cat: 10039-H03H, Sino Biological Inc.) (human, UniProt P26842 21-192); test: SPR (Reichert4), human CD27 protein on chip, antibody as analyte, curve 2.50e-8
T2 construct: Bought protein coated on the SPR chip
T2 sequence (looked up): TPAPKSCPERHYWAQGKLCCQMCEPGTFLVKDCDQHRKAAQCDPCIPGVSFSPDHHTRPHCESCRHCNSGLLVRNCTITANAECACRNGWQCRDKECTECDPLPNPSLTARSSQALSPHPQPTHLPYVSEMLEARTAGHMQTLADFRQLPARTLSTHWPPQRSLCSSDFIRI

[3] = biological target: 人CD27 (稳定表达人CD27的细胞系 HEK::CD27 细胞) (human) (UniProt P26842); test: flow cytometry on cells expressing human CD27
[4] = biological target: T2, 人CD27蛋白 (Cat: 10039-H03H, Sino …); test: SPR (Reichert4), human CD27 protein on chip, antibody as analyte, curve printed 625e-9
[5] = biological target: T2, 人CD27蛋白 (Cat: 10039-H03H, Sino …); test: SPR (Reichert4), human CD27 protein on chip, antibody as analyte, curve 1.25e-8
[6] = biological target: T2, 人CD27蛋白 (Cat: 10039-H03H, Sino …); test: SPR (Reichert4), human CD27 protein on chip, antibody as analyte, curve 5.00e-8
[7] = biological target: T2, 人CD27蛋白 (Cat: 10039-H03H, Sino …); test: SPR (Reichert4), human CD27 protein on chip, antibody as analyte, curve 6.25e-9

B1: Hu6D8-5 (antibody, human IgG4, V domains shown)
VH: EVQLVQSGAEVKKPGASVKVSCKASGYTFTNYGMNWVRQAPGQGLKWMGWINTNTGEPTYADDFKGRVTMTLDTSISTAYMELSRLRSDDTAVYYCAREGDGFDSWGQGTTVTVSS
VL: QIVLTQSPDFQSVTPKEKVTITCSATSSVNYMHWYQQKPDQSPKRWIYDTSRLASGVPSRFSGSGSGTDYTLTINSLEAEDAATYYCQQWNTNPWTFGGGTKVEIK
Question: Does B1 bind [1]?
Answer: Result: binds

B2: Hu6D8-12 (antibody, human IgG4, V domains shown)
VH: EVQLVQSGAEVKKPGASVKVSCKASGYTFTNYGMNWVRQAPGQGLKWMGWINTNTGEPTYADDFKGRFTFTLDTSISTAYMELSRLRSDDTAVYYCAREGDGFDSWGQGTTVTVSS
VL: QFVLTQSPDFQSVTPKEKVTITCSATSSVNYMHWYQQKPDQSPKRWIYDTSRLASGVPSRFSGSGSGTDYTLTINSLEAEDAATYYCQQWNTNPWTFGGGTKVEIK
Question: Does B2 bind [1]?
Answer: Result: binds

B3: Hu6D8-6 (antibody, human IgG4, V domains shown)
VH: EVQLVQSGAEVKKPGASVKVSCKASGYTFTNYGMNWVRQAPGQGLKWMGWINTNTGEPTYADDFKGRVTMTLDTSISTAYMELSRLRSDDTAVYYCAREGDGFDSWGQGTTVTVSS
VL: QFVLTQSPDFQSVTPKEKVTITCSATSSVNYMHWYQQKPDQSPKRWIYDTSRLASGVPSRFSGSGSGTDYTLTINSLEAEDAATYYCQQWNTNPWTFGGGTKVEIK
Question: Does B3 bind [1]?
Answer: Result: binds

B4: Hu6D8-2 (antibody, human IgG4, V domains shown)
VH: EVQLVQSGAEVKKPGASVKVSCKASGYTFTNYGMNWVRQAPGQGLKWMGWINTNTGEPTYADDFKGRVTMTLDTSISTAYMELSRLRSDDTAVYYCAREGDGFDSWGQGTTVTVSS
VL: EIVLTQSPDFQSVTPKEKVTITCSATSSVNYMHWYQQKPDQSPKRWIYDTSRLASGVPSRFSGSGSGTDYTLTINSLEAEDAATYYCQQWNTNPWTFGGGTKVEIK
Question: Does B4 bind [1]?
Answer: Result: binds

B5: Hu6D8-1 (antibody, human IgG4, V domains shown)
VH: EVQLVQSGAEVKKPGASVKVSCKASGYTFTNYGMNWVRQAPGQGLKWMGWINTNTGEPTYADDFKGRVTMTLDTSISTAYMELSRLRSDDTAVYYCAREGDGFDSWGQGTTVTVSS
VL: EIVLTQSPDFQSVTPKEKVTITCSATSSVNYMHWYQQKPDQSPKRLIYDTSRLASGVPSRFSGSGSGTDYTLTINSLEAEDAATYYCQQWNTNPWTFGGGTKVEIK
Question: Does B5 bind [1]?
Answer: Result: binds

B6: Hu6D8-3 (antibody, human IgG4, V domains shown)
VH: EVQLVQSGAEVKKPGASVKVSCKASGYTFTNYGMNWVRQAPGQGLKWMGWINTNTGEPTYADDFKGRVTMTLDTSISTAYMELSRLRSDDTAVYYCAREGDGFDSWGQGTTVTVSS
VL: QIVLTQSPDFQSVTPKEKVTITCSATSSVNYMHWYQQKPDQSPKRLIYDTSRLASGVPSRFSGSGSGTDYTLTINSLEAEDAATYYCQQWNTNPWTFGGGTKVEIK
Question: Does B6 bind [1]?
Answer: Result: binds

B7: Hu6D8-4 (antibody, human IgG4, V domains shown)
VH: EVQLVQSGAEVKKPGASVKVSCKASGYTFTNYGMNWVRQAPGQGLKWMGWINTNTGEPTYADDFKGRVTMTLDTSISTAYMELSRLRSDDTAVYYCAREGDGFDSWGQGTTVTVSS
VL: QFVLTQSPDFQSVTPKEKVTITCSATSSVNYMHWYQQKPDQSPKRLIYDTSRLASGVPSRFSGSGSGTDYTLTINSLEAEDAATYYCQQWNTNPWTFGGGTKVEIK
Question: Does B7 bind [1]?
Answer: Result: binds

B8: 鼠抗人CD27单克隆抗体6D8 (antibody, V domains shown)
VH: QIQLVQSGPELKKPGETVKISCKASGYTFTNYGMNWVKQAPGKGLKWMGWINTNTGEPTYADDFKGRFAFSLETSATTAYLQINNLKNEDTATYFCAREGDGFDSWGQGTTLTVSS
VL: QFVLTQSPAIMSASPGEKVTMTCSATSSVNYMHWYQQKSGTSPKRWIYDTSRLASGVPARFSGSGSGTSYSLTISSMEAEDAATYYCQQWNTNPWTFGGGTKLEIK
notes: it is not clear whether they are whole chains or variable regions only; also called 6D8抗体
Question: How did the Kd [2] turn out when B8 was run?
Answer: The Kd was 0.514 nM.

Question: What about the koff [2] of the same binder?
Answer: The koff was 9.69e-05 s⁻¹.

Question: What about the kon [2] of the same binder?
Answer: Its kon is 188000 M⁻¹ s⁻¹.

Question: And the 结合率 [3]?
Answer: Its 结合率 is > 85%.

Question: And the Kd [4]?
Answer: The Kd was 0.514 nM.

Question: What about the koff [4] of the same binder?
Answer: Its koff is 9.69e-05 s⁻¹.

Question: What about the kon [4] of the same binder?
Answer: The kon was 188000 M⁻¹ s⁻¹.

Question: What about the Kd [5] of the same binder?
Answer: The Kd was 0.514 nM.

Question: What about the koff [5] of the same binder?
Answer: Its koff is 9.69e-05 s⁻¹.

Question: What about the kon [5] of the same binder?
Answer: Its kon is 188000 M⁻¹ s⁻¹.

Question: And the Kd [6]?
Answer: Its Kd is 0.514 nM.

Question: And the koff [6]?
Answer: The koff was 9.69e-05 s⁻¹.

Question: What about the kon [6] of the same binder?
Answer: Its kon is 188000 M⁻¹ s⁻¹.

B9: 6D8-G98A (人鼠嵌合抗体) (antibody, V domains shown)
VH: QIQLVQSGPELKKPGETVKISCKASGYTFTNYGMNWVKQAPGKGLKWMGWINTNTGEPTYADDFKGRFAFSLETSATTAYLQINNLKNEDTATYFCAREGDAFDSWGQGTTLTVSS
VL: QFVLTQSPAIMSASPGEKVTMTCSATSSVNYMHWYQQKSGTSPKRWIYDTSRLASGVPARFSGSGSGTSYSLTISSMEAEDAATYYCQQWNTNPWTFGGGTKLEIK
Question: Does B9 bind [1]?
Answer: Result: binds

B10: Varlilumab (antibody, V domains shown)
VH: QVQLVESGGGVVQPGRSLRLSCAASGFTFSSYDMHWVRQAPGKGLEWVAVIWYDGSNKYYADSVKGRFTISRDNSKNTLYLQMNSLRAEDTAVYYCARGSGNWGFFDYWGQGTLVTVSS
VL: DIQMTQSPSSLSASVGDRVTITCRASQGISRWLAWYQQKPEKAPKSLIYAASSLQSGVPSRFSGSGSGTDFTLTISSLQPEDFATYYCQQYNTYPRTFGQGTKVEIKR
Question: B10 was tested. Which Kd [2] did it give?
Answer: The Kd was 0.00185 nM.

Question: What about the koff [2] of the same binder?
Answer: The koff was 2.14e-07 s⁻¹.

Question: What about the kon [2] of the same binder?
Answer: The kon was 116000 M⁻¹ s⁻¹.

Question: What about the Kd [5] of the same binder?
Answer: The Kd was 0.00185 nM.

Question: What about the koff [5] of the same binder?
Answer: Its koff is 2.14e-07 s⁻¹.

Question: What about the kon [5] of the same binder?
Answer: The kon was 116000 M⁻¹ s⁻¹.

Question: And the Kd [7]?
Answer: The Kd was 0.00185 nM.

Question: And the koff [7]?
Answer: The koff was 2.14e-07 s⁻¹.

Question: What about the kon [7] of the same binder?
Answer: The kon was 116000 M⁻¹ s⁻¹.

Question: What about the Kd [6] of the same binder?
Answer: The Kd was 0.00185 nM.

Question: What about the koff [6] of the same binder?
Answer: The koff was 2.14e-07 s⁻¹.

Question: What about the kon [6] of the same binder?
Answer: The kon was 116000 M⁻¹ s⁻¹.
